Assay results as given in paper PMC11706664, “Structure of WzxE the lipid III flippase for Enterobacterial Common Antigen polysaccharide” (Open Biology, 2025).
Each block holds one binder with its values, some of them ahead of it.

Tests used:
[1] = target: T1, WzxE, the lipid III flippase from Escherichia coli (E. coli K-12 MG1655, UniProt P0AAA7, V inserted between M1 and S2 (worked out from the letters of primer WzxE-F, …)); experiment: SEC; WzxE incubated with nanobody at molar ratio 1:1.2 WzxE:Nb for 2 h at 4°C; co-elution on size exclusion chromatography in buffer B (25 mM Tris pH 7.5, 150 mM NaCl, 5% glycerol, OGNG, DDM); conditions: both partners purified
T1 construct: His10 removed with TEV protease; Residues of the XhoI site and of the TEV site probably stay at the C-terminus after cleavage (surmise); The same construct purified in DDM only was used in the ELISA; also called chain A; source: E. coli C43(DE3), purified from membranes (DM extraction with DDM/OGNG purification, or DDM only; nickel NTA, TEV cleavage, reverse IMAC, SEC); not shown: His10, …

[2] = target: T1, WzxE, the lipid III flippase from …; experiment: ELISA; biotinylated Nb10-strep II (1.62 µM/well) bound on Streptactin-coated plates; WzxE purified in DDM added at 2.78 µM for 1 h; room temperature, 25 mM Tris pH 7.5, 150 mM NaCl, 0.02% DDM, 0.1% BSA, 0.05% Tween-20; conditions: both partners purified
[3] = target: T1, WzxE, the lipid III flippase from …; experiment: crystal structure; WzxE-Nb10-Nb7 complex (Nb7 added to pre-formed WzxE-Nb10), with und-PP-GlcNAc or nerol-PP-GlcNAc added, lipidic cubic phase, 20°C; outward-facing conformation (PDB 9G9M, 9G9O); conditions: both partners purified
[4] = target: T2, WzxE-Nb10 complex (WzxE held on immobilised biotinylated Nb10-strep II) (Escherichia coli K-12 MG1655 (WzxE), V inserted between M1 and S2 (worked out from the letters of primer WzxE-F, …, biotin (EZ-link Sulfo-NHS-LC Biotin kit))); experiment: ELISA; nanobodies screened on the WzxE-Nb10 complex held on Streptactin-coated plates by biotinylated Nb10-strep II; anti-His HRP antibody, read at 410 nm; room temperature; the step of adding the nanobodies is not described
T2 construct: WzxE, E. coli K-12 MG1655, as the chain of m1 (purified in DDM); as the chain of m4 (Nb10 with strep II tag); A complex of a natural membrane protein and a nanobody, so that no single origin fits; not shown: His10, C-terminal, cleaved; strep II, C-terminal, kept
T2 chain: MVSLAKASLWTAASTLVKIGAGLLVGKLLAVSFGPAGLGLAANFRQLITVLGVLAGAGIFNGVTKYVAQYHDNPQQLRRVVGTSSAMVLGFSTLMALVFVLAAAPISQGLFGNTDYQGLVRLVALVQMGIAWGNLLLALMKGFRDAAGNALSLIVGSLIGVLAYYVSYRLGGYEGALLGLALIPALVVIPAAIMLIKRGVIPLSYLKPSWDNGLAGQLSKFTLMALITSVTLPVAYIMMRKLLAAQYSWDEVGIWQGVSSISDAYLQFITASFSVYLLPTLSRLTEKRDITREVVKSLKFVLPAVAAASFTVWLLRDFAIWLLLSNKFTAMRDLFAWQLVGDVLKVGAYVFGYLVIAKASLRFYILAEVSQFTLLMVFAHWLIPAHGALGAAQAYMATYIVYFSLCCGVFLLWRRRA

binding result [1]: binds
B1: nanobody Nb10 (CA12485) (VHH)
VHH: QVQLVESGGGLVQAGGSLGLSCAASGRTFSNYVMAWFRQAPGKEREFVARISESRGTTDYADSVKGRFTISRDNAKNTIYLQMNSLNPGDTAVYSCAATLPAWTGIIGGRRPGNYPYWGQGTQVTVSS
notes: Raised by llama immunization with WzxE (Nanobody4Instruct), in plasmid pMESy4; also called chain B; source: E. coli WK6 (su-), purified (His-Trap, SEC)

binding result [2]: binds
B2: biotinylated Nb10-Strep II tagged protein (VHH)
VHH: QVQLVESGGGLVQAGGSLGLSCAASGRTFSNYVMAWFRQAPGKEREFVARISESRGTTDYADSVKGRFTISRDNAKNTIYLQMNSLNPGDTAVYSCAATLPAWTGIIGGRRPGNYPYWGQGTQVTVSS
notes: as the chain of m2 (Nb10), with the C-terminal hexa-histidine tag exchanged for a strep II tag; source: E. coli WK6 (su-), purified (Strep-tactin beads, SEC), biotinylated; not shown: strep II, C-terminal, kept

binding result [3]: binds | binding result [4]: binds
B3: nanobody Nb7 (CA12482) (VHH)
VHH: QVQLVESGGGLVQAGDSLTLSCAASGRTAYRYGMGWFRQHPGKEREFVASIWWTGTTTYYADSVKGRFTISRDDVKNMVYLQMNSLKPEDTAVYYCAAKFYGGNSKRPGDYAYWGQGTQVTVSS
notes: Raised by llama immunization with WzxE (Nanobody4Instruct), in plasmid pMESy4; In the ELISA it was probably detected by the anti-His HRP antibody (surmise; the methods leave out the step); also called chain C; source: E. coli WK6 (su-), purified (His-Trap, SEC)
